Source: the DeepSol protein solubility set

Test: soluble on expression in E. coli; label from the status in PepcDB or PDB records

| Sequence | soluble on expression in E. coli |
| --- | --- |
| MAATSRPERVWPDGVIPFVIGGNFTGSQRAVFRQAMRHWEKHTCVTFLERTDEDSYIVFTYRPCGCCSYVGRRGGGPQAISIGKNCDKFGIVVHELGHVVGFWHEHTRPDRDRHVSIVRENIQPGQEYNFLKMEPQEVESLGETYDFDSIMHYARNTFSRGIFLDTIVPKYEVNGVKPPIGQRTRLSKGDIAQARKLYKCPA | soluble |
| MRTRIDYLADKYCFTERNESPRLRRQWQDVLEECRQTEAGPEERLRIALLNVDYVTSFELPFRLLLTRTPQLIAALREEWGISQKNVVFNDKRFGCVYSLKASLSGVPDTYRYHLSHRIRRVVGNENTSLPYQQVAREVKAPRERLKYALEAGLLVTALDGLFRFGSQRIAADVLRLRKAGMPVVTTTVEVHDNLTGTTRKVPAYHL | not soluble |
| KFVSDVEKEMETLVEAVNKGKNSKKSHSFPPMNRDHRRIIHDLAQVYGLESVSYDSEPKRNVVVTAIR | soluble |
| PRKASRKPPREESSATCVLEQPGALGAQILLVQRPNSGLLAGLWEFPSVTWEPSEQLQRKALLQELQRWAGPLPATHLRHLGEVVHTFSHIKLTYQVYGLALEGQTPVTTVPPGARWLTQEEFHTAAVSTAMKKVFRVYQGQ | soluble |
| MKLEYLIDQAAGQPKKTVAVAVAEDHEVIEAVAKAIKLQLAQFRLYGNQEKIMGMLQEHGLQTSEHVEVIAAMSSAEAAELSVKAVRNGEADVLMKGNIPTANILKAVLNKEWGLRKGSVLSHVAAFEVPNYDRLIFVTDAAMNIAPDVTQKAAIIQNTVEVARAIGIDLPKVAPIAAVEVVNPAMQATIDAAMLTQMNRRGQIKDCIVDGPLALDNAVSQIAAEHKGIVSDVAGKADILLVPTIEAGNVLYKSLVYFADAKVGAMIAGAKAPIVLTSRADSAETKVYSLALAVATASK | soluble |
| MAHHHHHHMAHVITRINAREILDSRGNPTVEVDLETNLGIFRAAVPSGASTGIYEALELRDNDKSRYLGKGVQKAIKNINEIIAPKLIGMNCTEQKKIDNLMVEELDGSKNEWGWSKSKLGANAILAISMAVCRAGAAANKVSLYKYLAQLAGKKSDQMVLPVPCLNVINGGSHAGNKLSFQEFMIVPVGAPSFKEALRYGAEVYHTLKSEIKKKYGIDATNVGDEGGFAPNILNANEALDLLVTAIKSAGYEGKVKIAMDVAASEFYNSENKTYDLDFKTPNNDKSLVKTGAQLVDLYIDLVKKYPIVSIEDPFDQDDWENYAKLTAAIGKDVQIVGDDLLVTNPTRITKALEKNACNALLLKVNQIGSITEAIEACLLSQKNNWGVMVSHRSGETEDVFIADLVVALRTGQIKTGAPCRSERNAKYNQLLRIEESLGNNAVFAGEKFRLQLN | not soluble |
| MSTVGGIEQLIPDSVSTSFIETVNGSHQFTIQGYSLAKGMSPGKFIQSDIFSVGGYDWAIYFYPDGKNPEDQSSYISLFIALASDSNDIRALFELTLMDQSGKGKHKVHSHFDRALEGGPYTLKYKGSMWGYKRFFKRSALETSDYLKDDCLVINCTVGVVRARLEGPKQYGIVLPLSNMGQGLKDLLDSEVGCDIAFQVGDETYKAHKLILAARSPVFRAQFFGPIGNNNVDRIVIDDIEPSIFKAMLSFIYTDVLPNVHEITGSTSASSFTNMIQHLLAAADLYDLARLKILCEVLLCEKLDVDNVATTLALAEQHQFLQLKAFCLEFVASPANLGAVMKSEGFKHLKQSCPTLLSELLNTVAAADKSSTSGQSNKKRSASSVLGCDTTNVRQLRRRTRKEVRAVS | not soluble |
| MGSDKIHHHHHHMRTYRLVIACPDRVGIVAKVSNFLALYNGWINEASHHSDEQSGWFFMRHEIRAESLPFGIEAFREAFAPIAEEFSMTWRITDSAQKKRVVLMASRESHCLADLLHRWHTDELDCEIPCVISNHNDLRSMVEWHGIPFFHVPVDPKDKAPAFAEVSRLVQEHAADVVVLARYMQILPPQLCRDYAEKVINIHHSFLPSFVGAKPYHQAALRGVKLIGATCHYVTEELDAGPIIEQDVVRVSHADSIEDMVRFGRDVEKMVLARGLRYHLEDRVLVHGNKTVVFD | not soluble |
| MGSDKIHHHHHHVNETSHSLEYEAFIEEARHVVEARFGHTGTTGEVPRLLLRHGTVRMARDMARGIRPCQVKMPDVSGLQYGDFAPLDPLALLRDEVKLPSLPAVVAELRDVLSSPNSSAADVARVISRDAGLSAFLLRMVNSAFYSFPSRIDTVSRAVALVGRQQLSTLALGVMVIGAMRDLPVAHLDLSLFWQHSIACAVVAGQLAEAAGMEEPERFFVAGLLHDIGRLAVFSLLPDRAAAILSMCSDYGMPAQDAELRVLGFDHATLGGMLLRKWNFPMSLVFSTLHHHVPERSVRHVEPAVVHVADVVVKGLGIGVSGMHQLPGFKEDAWQRLGVSVAVLEQLIDGLEERLRDTSSLLLE | not soluble |
| MAHHHHHHMEQFLNQVAASNKTVKCIKGALQIYDTYGEVFSLVHERRYEEAGIICTHFSDHIGQLFLGTTDGNCLVYYHDERSGDEQRSGVEERSGDDLYGDADRCGVPPVGRKKKGGVLEYLHKGVKRKRERASFYTNSEHIYNLDSLPKEIKITDAGDVLIKKDLINAKVKMNPKLSSFTANAYEKKRQVGMYSKYIVDANPSGKDPSSSQTNKGNEYEEEDIVEKLRKREQSKQGGDYFMNAYKYTQPSAIIDYSSGEEQEYSQLLKKPKCPQCGVKNCVCGFMRSGGRRAR | not soluble |
| MAIYSFKMENISRGEGQSSVNSAAYRHRKVFFDNRTGEVCGRKTAHKKDLAFAQIFAPENTPSDLIVDSETLWNAVEASEKRKDARLAKEFKIALPAELTPEQSIELTKAFVLEHFTKQGIITDVVIHDINGHNPHIHIMGTTREVLSTGFGKKVREWDKPETLDSWRKGWQNICNEFLDLYGHDERIDHRSIRVQYKEALEQATAAATNEEKAIWLAKAIETNRDPILHIPRDRWGTLAAQEQRAAEQAIRDEQKKEAVEAYFTFKDLPLDIVVDVASFRVHALAEPEEIVIPDNTGKGSSTGSQKPVLVAPVPHTRTTLKTPSTSTARTLKRAPVKVKRKKVEPRQSGVFKRFTLLVVDYIREKFVWAKKKPVPVSVDAEHDERIAENYVFDEVQGIYVPRAEHERRARFNSDTYSPTPDEIRRFPRRPLKPDQANNTLDYIPTFSWDRKPSVLQLKPSGYRDKELEHHHHHH | not soluble |
| KVGILQFVTHDALDQIEKGIEDGLKEAGYKGDKVQITLLNAEGDQSKIQTMSKQLVNDKNDVVIGIATPAAQGLAAATKDIPVIMGAISDPVGAKLVKNLKHPEGNVTGTSNQVPIKQTVELVKSLTPNAKTIGILYASSEDNSQSQVESFKKYAEQDGLNVIEYAVPSTNEINTTMSVMTGKVDAIWTPQDNTIASSFSTVISLANQAKIPVYTTVDTMVKEGGLASVAQNQYELGKATARSAIKVLKGKKVKDIPVDVIDDGTPTLNLKVARDLNITIPDDVLKQSDIAVKADK | not soluble |
| MSLRYLRFLTAGESHGKGLTAILEGIPANLPLSEEEINHELRRRQRGYGRGGRMKIEKDTAEILSGVRFGKTLGSPIALFIRNRDWENWKEKMAIEGEPSPSVVPFTRPRPGHADLSGGIKYNQRDLRNILERASARETAARVAVGAVCKKFLSEFGIKIGSFVVSIGQKEVEELKDKSYFANPEKLLSYHEKAEDSELRIPFPEKDEEFKTYIDEVKEKGESLGGVFEVFALNVPPGLGSHIQWDRRIDGRIAQAMMSIQAIKGVEIGLGFEAARRFGSQVHDEIGWSEGKGYFRHSNNLGGTEGGITNGMPIVVRVAMKPIPTLKNPLRSVDIETKEEMKAGKERTDIVAVPAASVVGEAMLAIVLADALLEKLGGDFMEEVKKRFEDYVNHVKSF | soluble |
| MSDKNIQDRAAGAIMGAFIGDALGLGPHWYYDLSELRRDYDDWITGYTDPKPDRYHAGLKAGQLSQSGFILKLMVRSLVGCGGYDTEDFCHRMDEELFPLLDGTPVNGPGGYTSQSIRETWRRRVQQMLPWGQTGGHADTTEAVERTLAIAVRYAYQPEQLAAAVSANTTLTQTDETIVSMTVAYGAVLGLLIQGHALDTGLSGKLMDLVKSGALPFHAVTGDDLQPPRPGDPDPPRAGRFASPDALLTPSYMAAAAVDPEIRIEPAWKVSIVYGMPCAIYHQLPAAYYLAARFRDDFKSAVLHAVNGGGQNQARAMLTGALAGAQTGLSGIPQYLLDGLDNSAVLGKLAVELAASVNPIMAGDPNSLEHHHHHH | not soluble |
| MALPKPSDGTLPAEVQGRGQRRRLVWTPSQSKALQACFERNPYPGITTRERLAQAIGIPEPRVQILFQNERSCQLRQHWH | soluble |
| MVLTLDLADPAQPEHVFIVEDSRGATELKLYKSHYTIGKADSCDIRLHSIYASRQHATLVRFLTENGEVRYRLIDGDPETSRRSANGTYVNNRSITECDLKHYDQILFGALEHHHHHH | not soluble |
| MSTMKDEIEKVPASQYKGQDFQPLAEKSAIAHAKKYREEYEKLGEQFFKDNFSLNVKATNVVGSGDGAEVYVHCDDHDIVFNASIPFDMESIHEEGSMRSNDNGDTMSMMVGTVLSGFEYRANKEKMDNLEKYLKDKEDKYHYTGFTDEAITKTQNIGYQNNYFYITTSSTKLRDYRKHFEPLIKESDDDFKKHMKQLKSKKDTYINTEITTTLFSTLDEYDEKIIRKNTLSMAKEMRKEPSIPHNFTFHLLFSNNKLKINDPNISNNQINEYRVFDHDGFKNLEHHHHHH | soluble |
| MAGDPMKVFVVNLDKDKDKKEKIKNECRNAELDYEIISAVDGRELSYNELKSKVHPVSLNYLSKGEIGCVLSHQRIYKRILDDDIDYALILEDDVELSQDIKVFLKEFLSVKDKNKGDVFLLYPSGLRFLNRRINVSHDYFFYEAYNSSCAHGYIISNKAAKKLIRINTPIILVADAWLWFYQISLLKVYVLNKELVRAYDVDKSLSTIETERSLLLDEKEKHQMQIIKKQPLYYLIKYYHKYIRRLFINKDKLEHHHHHH | soluble |
| MGSDKIHHHHHHMVASKQGLDLFQASGEPYEIGYRLGELARPVFAGYMRQSRAWQAVRRWRGAPFVHKLREAAHAHFPALLVELDGMAAGLGWTAEDMFLWNCRGELIHNVPDGCTTLAAHVGDTRFIAHNEDGDPFLGERCALVEVRPAGKPGFVSFHYPGSLPGHTFAASRAGVVQAINNLRIRAPVAGVPRMILARAVLDAASLDEALHILRDTPAASGFHHTLGCAGDARLVSVEVSARRCSVQTVPNLYGHANHMIHPGCEAEAQIVTDSSRERQARVNALLPALSRPLQPAALLDVLQDRAPSGLPIYRDDPLDPDGENTLATALFEIGGAGVSMKVYRQGQRAFDAFIARAACGQTGA | not soluble |
| MAKEKIIVENEQSVEEKLAALSKLQNTLSEIDKIKTLRGELPLEVQDLEDEIAGMQTRLENFTAGSKQLNQAVTTEKEKISTAKTLLEKYKKQLDEVRNNREFDNLSKEIEFQELEIQLSEKKIKEYNVEIQQRKTDIATLKEVLEEHSEVLAEKRGELDTIIAETKQEEEKLREKAKKLEAKIEPRLLTAFKRIRKAAHNGLAVVPVERDACGGCFNKIPPQKQLDVKLRKKIIVCEYCGRIMVDPEMGA | not soluble |
| MKVAIVGVSGAVGQEFLRVLDERNFPMDELVLFGSKRSAGTTYTFRGKQIEVKLLQHNDDFKGVDIAFTSAGAGTSKEFEKTITKYGAVMIDNSSAFRMDADVPLVVPEVNAADALERPRGVIANPNCTTIQMVVALKAIEQLSHIKTVHVSTYQAASGAGAAAMDELYEQYRQVLANEPVTVEKFAYQLAFNLIPQIDVFTENGYTKEEMKMYNETRKIMHSDVKVSATCVRVPALRAHSESIWVETERPISVEEAREAFAKGEGLVLQDNPAEKEYPMPLFLAGKDPVYVGRIRKDLTNENGLTFWIVGDQIKKGAALNAVQIAEYLIKVKNV | not soluble |
